Laboratory results as given in paper PMC3575800 (Nucleic Acids Research, 2013).
Residue numbers refer to the chain shown, from its start. In names and notes the source's numbering stands.

Columns and labels:
[1] = biological target: T1, PH domain of the Tfb1 subunit of TFIIH (Tfb1PH; residues 1-115) (S. cerevisiae, UniProt P32776 1-115); assay: ITC
T1 sequence (looked up): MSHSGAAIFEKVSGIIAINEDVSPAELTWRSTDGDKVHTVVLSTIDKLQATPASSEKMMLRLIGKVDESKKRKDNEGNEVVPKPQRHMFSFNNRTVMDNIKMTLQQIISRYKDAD

[2] = biological target: T1, PH domain of the Tfb1 subunit of TFIIH …; assay: NMR titration

B1: Rad4 residues 76-115 (acidic segment from the N-terminal region of Rad4) (domain or fragment, S. cerevisiae, UniProt P14736 76-115, looked up)
chain: TDDSVEEIQSSEEDYDSEEFEDVTDGNEVAGVEDISVEIK
Kd [1]: 50 nM | stoichiometry N [1]: 1

B2: Rad4 residues 76-115, V98P mutant (domain or fragment, S. cerevisiae, UniProt P14736 76-115, looked up)
chain: B1 chain with V23P
fold reduction of affinity against Rad4 76-115 [1]: 24 fold | stoichiometry N [1]: 1

B3: Rad4 residues 76-115, F95P mutant (domain or fragment, S. cerevisiae, UniProt P14736 76-115, looked up)
chain: B1 chain with F20P
fold reduction of affinity against Rad4 76-115 [1]: 50 fold | stoichiometry N [1]: 1

B4: Rad34 residues 41-63 (peptide, UniProt Q06665 41-63, looked up)
chain: FYQDEEDDLSDIDWEEVSLDGSL
Kd [1]: 11 nM | stoichiometry N [1]: 1

B5: Rad34 residues 41-63, W54S mutant (peptide, UniProt Q06665 41-63, looked up)
chain: FYQDEEDDLSDIDSEEVSLDGSL
Kd [1]: > 10000 nM

B6: Rad2 residues 359-383 (acidic segment of the spacer region of Rad2) (peptide, UniProt P07276 359-383, looked up)
chain: RSEDEGCDSDECEWEEVELKPKNVK
binding result [2]: binds
